# Experiment: soluble on expression in E. coli; label from the status in PepcDB or PDB records
row,Sequence,soluble on expression in E. coli
1,MADERRCGVCRPLGGPRQPWPAGLLHCSSRAIFASLCMPRIVFAPAIQRHVAMPALDVGAATVAAALQAAFAREPRLRGYLLDDQGSLRRHVALFVDGVQVRDRRGLGDPLQDDSEIYVVQALSGGLEHHHHHH,not soluble
2,GMTGAVETESMKTVRIREKIKKFLGDRPRNTAEILEHINSTMRHGTTSQQLGNVLSKDKDIVKVGYIKRSGILSGGYDICEWATRNWVAEHCPEWTEGQPIILNEEGDFTLGPLPE,soluble
3,EDGYDMWLRYQPIADQTLLKTYQKQIRHLHVAGDSPTINAAAAELQRGLSGLLNKPIVARDEKLKDYSLVIGTPDNSPLIASLNLGERLQALGAEGYLLEQTRINKRHVVIVAANSDVGVLYGSFHLLRLIQTQHALEKLSLSSAPRLQHRVVNHWDNLNRVVERGYAGLSLWDWGSLPNYLAPRYTDYARINASLGINGTVINNVNADPRVLSDQFLQKIAALADAFRPYGIKMYLSINFNSPRAFGDVDTADPLDPRVQQWWKTRAQKIYSYIPDFGGFLVKADSEGQPGPQGYGRDHAEGANMLAAALKPFGGVVFWRAFVYHPDIEDRFRGAYDEFMPLDGKFADNVILQIKNGPIDFQPREPFSALFAGMSRTNMMMEFQITQEYFGFATHLAYQGPLFEESLKTETHARGEGSTIGNILEGKVFKTRHTGMAGVINPGTDRNWTGHPFVQSSWYAFGRMAWDHQISAATAADEWLRMTFSNQPAFIEPVKQMMLVSREAGVNYRSPLGLTHLYSQGDHYGPAPWTDDLPRADWTAVYYHRASKTGIGFNRTKTGSNALAQYPEPIAKAWGDLNSVPEDLILWFHHLSWDHRMQSGRNLWQELVHKYYQGVEQVRAMQRTWDQQEAYVDAARFAQVKALLQVQEREAVRWRNSCVLYFQSVAGRPIPANYEQPEHDLEYYKMLARTTYVPEPWHPASSSRVLK,soluble
4,MAHHHHHHMTEYEEKERKTSLAALRRFVKHCGPTRFTFITRIPLSRNTNQVNGTLLLENGDLTVCAQDMKANIADIREDIASFSVPQHQDFIRAFEEAKNMLKNELAALQEHKSILMVQYEMARP,not soluble
5,MSLAYKGYLIDLDGTIYKGKSRIPAGERFIERLQEKGIPYMLVTNNTTRTPESVQEMLRGFNVETPLETIYTATMATVDYMNDMNRGKTAYVIGEEGLKKAIADAGYVEDTKNPAYVVVGLDWNVTYDKLATATLAIQNGALFIGTNPDLNIPTERGLLPGAGSLNALLEAATRIKPVFIGKPNAIIMNKALEILNIPRNQAVMVGDNYLTDIMAGINNDIDTLLVTTGFTTVEEVPDLPIQPSYVLASLDEWTFNEGHHHHHH,soluble
6,PKFHQAFAMINDAISDQSTFRLSCNEALIHRITPTNTISICADTDLPSLLNDLRLKQIDLIISPTTIHNPSFISESVFEEPMVVICRQDHPRIAGKIEQERFYSEKHCRFVGDEDFPVSNTEIHQPGLQERDVEMMTTSLSGMMLYVAKHDCLGVLPLSLAQKWQSALNLQVIQTPMLSEPVSYKLIFHKRDESSTSHQRLRAWARDQFATGLNA,not soluble
7,GPGSMSFSHFVPPISRRRMFFEDQLDEALSREGSPRLSTSNTVGGADLVAAGAANDETFPFPSHAAPGHLLKSLIQATENERCAPDILPYPEAIVDSVVAQIVAQNEQIRLLGTDERQKAAGSDSGVSLLPFKPSDIMALEVQRAQFFLCELLRCRLRKIEALALTINYESQSGAEAHTQLREHLSHNEIVVADRLAELISKCVRQAGLQSAPSELQQLVPNAPYAEGNEVLPIPDIDHYVFCVVLDDLGVVRLGDDAEQTVHAGEVFIVPYRTFRPYILEGRVRLV,not soluble
8,MGSDKIHHHHHHMTYPKYTQQALSRYNLPRLKRIATELGVTPTGDKRAADTWVNAIIIHQSTKLQKVDNQALAQAELDSYIADQAQAIAPEPLTIVEISFDHHEYYADDKLVASISHDDSHLTQRWVVMINDKEIFRANTLMHCDRFICNHYKDGSLPVQEKEATPSTIENQIMAHIFNECQNYGFEILDDGIYNNGVKLGQVGCTDGNWWVKRRYSVQQQYSNSVLDAVRSLSMLDVSNGGKSIFDEYILDQPLEQLTGDRLQRLLERAELVTA,not soluble
9,MSLDPVGPISDEETSYYVRLQYNGEFLPLFTKVDGITYKKDKSDYSPLKPSFIAGGGAFGYKMDDIRVDVEGVYSYLNKNDVKDVTFDPANTIADSVTAISGLVNVYYDIAIEDMPITPYIGVGVGATYISTPLEPAVNDQKSKFGFAGQVKAGVSYDVTPEVKLYAGARYFGSYGANFDGKKTDPKDSTRQVTDAGAYKVLYSTVGAEAGVAFNFEGHHHHHH,not soluble
10,RALEDEDMRKVFSRLSKSSTIPSDLRRTKELFILMFLLRGLPFVDLAYLRKSDLRGNVITYRRRKTGRSLSVTLTPESMLLLEKHISRDLSSPYLFPILHSIEGSQEAYREYQLALRSFNQHLELLGQWLGLESKLSSYTARHTWATTAYYCEIHPGIISEAMGHSSITVTETYLKPFRNRKIDEAN,not soluble
11,MGSDKIHHHHHHMAVRIVSRQPLTKGWSTDQKYKVQLEDGRLGLLRIAERPAYEAKRLEFQLVENLFGLGLPVAEPLSFWADDLSVYTLYEWVEGQDMNEVATSLSDSVLYDLGCQSGKFLRTLHALPIDQSQRDWNSFYQVKIDNKLAAYQAASHSYPTGPAMIDFVQANRHLLEGRPIAYHHGDFHTGNFLLGPDGKLKILDFDRYDIGDPWEEFNRLIFTADLSPAFARGQVDAYFDGAIPEEFWKLMALYVTVNCLAALSWAEQVDSEQIPMMKLQAQKISEWYEYFNHHLPKWYM,not soluble
12,MGSDKIHHHHHHMPQFSPSYSFPVQIYYEDTDFSGVVYHPNFLKYFERAREHVIGAEQLRNLWQQQQLGFAVYRSDMLCHEGVEFADIIDIRTKFYFESKYRTVWHQEIWRPNGKKPAVTATIEMVCMNQARQLAPMPAELITQLSLGM,not soluble
13,MKALVAVSAVAVVALLGVSSAQADPEADPGAGEANYGGPPSSPRLVDHTEWAQWGSLPSLRVYPSQVGRTASRRLGMAAADAAWAEVLALSPEADTAGMRAQFICHWQYAEIRQPGKPSWNLEPWRPVVDDSEMLASGCNPGSPEESF,soluble
14,MRNRTLADLDRVVALGGGHGLGRVLSSLSSLGSRLTGIVTTTDNGGSTGRIRRSEGGIAWGDMRNCLNQLITEPSVASAMFEYRFGGNGELSGHNLGNLMLKALDHLSVRPLEAINLIRNLLKVDTHLIPMSEHPVDLMAIDDQGHEVYGEVNIDQLTTPIQELLLTPNVPATREAVHAINEADLIIIGPGSFYTSLMPILLLKEIAQALRRTPAPMVYIGNLGRELSLPAANLKLESKLAIMEQYVGKKVIDAVIVGPKVDVSAVKERIVIQEVLEASDIPYRHDRQLLHNALEKALQALGLEHHHHHH,not soluble
15,MGSDKIHHHHHHMKEYIMSFFNAPVTNKIPTCICSVAGLHTYISTNPQLEELTRKVRAGLGDKQVFRKNKQTLLPYVTPAGIFSYCKEQCMQVPSGLFVIDIDELASTEEAAMWRDRLFADEVLHPVLSFVSPGNQGVKLFIPYRINPFLSVEESFDNALHTAWEYLEWKYELKVDRANADLSRACFLSHDGEAKINNHKY,not soluble
16,MFFKQFYEDNFSQASYLIGCQRTGEAMIIDPIRDLTKYLKVADKEGFTITKAAETHIHADFASGIRDVANKLNASIYVSDEGKDEFNYKNMPKQTHFVKHQDIIYLGKIKLEVLHTPGHPPESISFLLTDEGGGSSIPMGLFSGDFIFVGDVGRPDLLEKAVNVEGSTKIGAKQMYQSIQFAATLPDYIQIWPGHGAGSPCGKALGSLPTTTLGYEKINNWAFNVKDETSFIETLTLNQPAPPHHFSQMKKINQFGMQMYQPYNVYPSSSNTQTAFDLRSKEAFHGGHMHGTINIPFNKTFINQIGWYLDYDLEHHHHHH,soluble
17,MLRFPENVVICDGKRILWNGLGLPENLVFEMARTVLESNVPLKGKIFCFPAQTVLGKMAIFTDEKTQGRDVLVELLNHELLRMRLYSEEVENLVEVLFNDWRPGKRVFIVRSKNFETRLSLREKLSSFADVIYNAGEIDVGIAPAGTLLQINEEKVSFSDPERDIKEAVRKALLIDRYVNEPFSFYEKLPAYNFSLNIQIPELVKIFLRTGDIQKTSELTEKNVEVVFREILKFEKKTLLSPRIPVEAFLILKGGLD,not soluble
18,MSLLNEENNFYNVDLLDLLKDSNEAVLPYKRIRFRRNQKILTEGAETTYFYIIEDGVVSMSKNTCKEDSIISFLGKQDSIGPLTLLGGAKSPANYTSISEVSVYQFERKYVLNKLLSSPDVFWQMNSLMQSMVSPMLEREAYVNLPSSEKVLAGLIACGERFGRIESDGSCLIPYYFTQKILGNYLNLARAYVATNLRKLEEDGVISLSPKPWRVKNFDVHRQKLKDNYKPYI,not soluble
19,MGSDKIHHHHHHMSVLYDTIGIDYANLRKPDLRIAAQIDAALGDAQSVLNVGAGAGSYEPAGRAVTALEPSAEMIAQRPEGTAPVVQGPAEDLPFADNSFDAAMAVLTIHHWSDKARGLAEMRRVARNRAVLLTYDPAFRGQWQTEYWPGLIGLDDGAMPPMAFFEEHLGPVDTQPVLVPHDCSDGFLYAYWRRPQAYLDPRIRKGSSGFWMIDGVEEGAQRLQADLASGAWAARHAALLERENADMGYRLVIADLV,not soluble
20,MASGDITRYVITVTFHEDSLTEINELNNHLTRSGFLLTLTDDEGDVHELGTNTFGFVSAQSADEIKALVAGLAKSALDKDVDITVATWEAWSKNAQ,not soluble
21,EMDRRAALSGAAGAFMAACDEAVRELLLAMNFSDHDAEAIITGAAPPQLEHAASGVVSLVLRLKSSVLSHYIKHLNNAAARSQAAAASTAAVDGNAEDAADKHGAKATSAAKAPPAAGGGAGDAADQQLSTGEACLVQLQLYGGVGDALLQLLRSKLRGSACQLWALAHIVHPHPSRSEKESLAAYTGKSTKQVTDWFTNWRARHWRPAIMALQKGAAGGAAGGSLG,soluble
22,MSLEGYTVIIKTGNEDLDRRLTGLPFPALIMIEGDHGTGKSVLAAQICYGLLISDKKGYVITTEQTTKDYLVKMRDVKINLIPFFIKGSLGVAPLNTNKFNWNSDLANKILDLIIDFVKKRKNIEFLIIDSLSVLATFAEERQILQFMKESRVLVDLGKLILFTIHPDVFSEEIKSRITSIVDVYFKLSAVTIGGRRIKVLERVKTVGGIQGSDTISFDIDPALGIKVIPLSLSRAEGHHHHHH,soluble
23,MKEKYKKSLYIPNELLLEIFADKNLDIQNIIVVSMVCKLWYELSLDNAVWRPLFIKRFSYSPTLANHSIFKEDYQKQLALTQAMKKKCESNHACRNEPGLLEAIREKNIPLIYALFESGHRIIIDSFPDGEQQFTEEMLGFLSECAELPSSLLARIFKRGFCTADMETSEFLALHFIVAEADEKLLQKIFRALGDDLLSVSRYCDLYDNNFFSSLLHFPVERFSLVLRLLYETLGKTKLSTLLVYQNHTYTDWSCIHSASRCGREYFFITLKYLKRQDYPVLLKKGLNDEDIPLFNIAYWGDKESLSHIINILGADATTFLKYKDNKGRNILLPALLSEDHSTVELIEKVMGMEFIDLLLMQDTNGRDILRRVMLLQEPTVLRRINTVLKLLRDYDCLDIAQELYSSDEFTQLISQNLYINQDETIELFNKYTEEKTNNFCSIL,not soluble
24,MSLGFHEVRFPASLSFGSVGGPERHTDVVTLANGHEERNTPWAHSRRRYDAGVAMRGLDDIETLIAFFEARQAQLHGFRWKDWSDYKSGPALAEPAYHDQIIAIGDDVTASFPLIKAYRSGEQIYRRPITKPVAGTVRIGLSGDEQQEGVHYEVDTTTGIITFAHPPNEGLEITAGFEFDVPVRFDTDRIQTSVASFQAGDMPNVPVVEIRVEGHHHHHH,soluble

# — the DeepSol protein solubility set
